In the DeepSol protein solubility set:

Assay: soluble on expression in E. coli; label from the status in PepcDB or PDB records

Soluble on expression in E. coli, not soluble:
NNPVSETITRKHVDKDQIRAFGVVAEDNAQLEKGSLVMMGGKYWFVVNPEDSAKLTGILKAGLDKPFQIVEDTPSYARHQALPVKLESPGSQNFSTEGLCLRYDTDKPADIAKLKQLGFEAVKLDNRTIYTRCVSAKGKYYATPQKLNADYHFEQSVPADIYYTVTEEHTDKSKLFANILYTPP
MPSCEINLIFNDSEEPVTLRDTGIIMLVPVILRSVQSEFPDFENQDNVKVTSPLSIPFNKKAGVFLFEYIQKYVPPNDDTIHELTVVENYKEAGQKTLDELKEIIELANFFECTDFMECLGFVIGKKLEDKSVEEIAAYMGVECNAPGHFFDEADGWVHPPADAFQNVQ
MGSDKIHHHHHHMDVLKEVLSLDQDKFDQLKETSRDKTNETDDPFENYLKDCKFKAPSNKDQSPFAKLKSLQETHSNNEAAINIIIPQLIDYLTEFTNRLSNYTQDLDFIKKKSNELQSLLEYNSTKLAHISPMVNDLMIPPELIDDIIKGKINESWQDNITFIADKEEIYNKYRSNNLDQDNKDAENSAMLAPKDFDKLCQLLDILKNVILERSKRLIISKIKTLRSHNPVPSQRIQNKLLKVQKIFPFIRDNNLSLALELRQAYCYTMKWYYREYFSRYIRSLTILQFQQIDSQFALGNGLSTTSVSGFNNSPSLFFSNYLTTSASNAFYNKLPVTDEKIDKYFQIKKRLNILTQEDNTVMVSQIAENNTTKNYIEIGFKNLNLAILDNCTVEYHFLKDFFAMNGDNFEEINGLLEQIFQPTFDEATTYTQQLIQYNYDIFGVLISIRVANQLQFESERRGIPSMFDSFLNGQLIQLWPRFQQLVDFQCESLRKAAITTNVAKYAGNSSTSNSSPLTSPHELTVQFGKFLSSFLTLAITHKQSIDERSEPLYNSIIRLRNDFETVMTKCSKKTKSPERFLATNYMYLYNNLQQLHLHLNINDSDAQNYNFDSAENVGTKVANDDDNDSSVPLIIRETENHFKTLVEAFTRN
TGASNYYIIFTSGTTGVPKGVQISHDNLVSFTNWLLQDFGLEEGARFLAQAPYSFDLSVMSIYPALALGGSLTPLPNEIINDFKQLFTRLPQLTIDVWVSTPSFIELCLMEPSFDGEHLPALRTFLFCGEELPKPTAEKLAARFPTAHIYNTYGPTEATVAISAIEITQEVLKSVQ
MGSDKIHHHHHHMAMNDNNINTCRYRVDVPYPPVRVVGPNPVYACEMLGNMGDAVSEMSDVTRYFYISVVTKPQYSWISACFRDISIVEMHHLNIFAELALLLGADPRLWSCRDCMQWWSPSYIGYPHGVRPLIAESIQAEEAAIRKYSHQADTICDMNIVAILRRIIQDEMYHLQIFREMYQQV
MAHHHHHHMQPMVLPYVDRKPPISKVMDARVLVWRESERMLRNGEGAAECSYAQKLQVLRSQQLADARKYMDTSAAMRSVKPVLATSSVDADDDDEFCRKRSRESEGPSVDEIRRFEGKLGETLALELTLWSLRRGSHGGVRSQRYTTALHALQDTQKLLRKTLQQMEEINALRFLEQQQFLKVNSEKARLLHVRLRNVRALENILRGNGKRRGSTLLATLE
MTKEKLSWLQQKMLNKSIKKKCQNFRELGYSSINEEDLLTYLLTYRWKKQTHLSVKDCRKDIHKVKPNEFFDYQQLLAQTSKNPLRDWHDIEDLF
MAVPPAYADLGKSAKDIFNKGYGFGMVKLDVKTKSASGVEFKTSGSSNTDTSKVVGSLETKYKRSEYGLTFTEKWNTDNTLGTEINIEDQIAKGLKLTFDTTFSPNTGKKSGKVKTAYKREFVNLGCDVDFDFAGPTIHGAAVVGYEGWLAGYQMSFDTAKSKMTQNNFAVGYKTGDFQLHTNVNDGSEFGGSIYQKVSDKLETAVNLAWTAGSNSTRFGIAAKYQLDKDASISAKVNNTSLVGVGYTQSLRPGIKLTLSALVDGKSINSGGHKLGLGLELEA
MAIPYVVRKKADLTSGERKELWYGVPSKIQDRGGVQNKELAQVVELRGGFHRGQVEGILVEVADAIRYLLSMGQSVTIDGLGTFQTALTSPGFERPEQVTPGQVSVSRVYFVANSALRDRMKKTKCMRIPFKYYMSESMLTKEMKKADQEQEQTEE
MNSAPLLVDPSTQSATVVAETQPFGDRCMLESLIRRPFCMNPQLQTHPYDRQPTTAPRLQMMPRRDQTQNPVIAELMSTVTRVRDRKRQRDEEAMYPRRSVGLQTDTEDVSEVLDGGTRISDMKRVRREELLDQSSLDGITFETSGTNTSDEPHSQIITSNSSSLPSTSASSSSDRPRAMRSNQEMRQARRARRQRQTQHESQRMQLEHRLQQITGPVPGSEHNCMTGCPHLHQQQQQQHQQPLLHIQLNPIPPQPQTGPNSVSPTIAPGAMLRAHPLASTFPYFSLPLTQNYPVMMVLPMAAVAQQHAAAAAAVVAVAAAAAVPQPPPPPPQPTLHAPVPIRPQNNPYNLYAFRNSPINVHAPGYVGEYVELFRSQQFLFPTSERYGIDRHHMFGGLDLDLPVGASKVEIDTFTIPTVYAKKTDGEEDEDTCTVCLSSFEDGESIQKLRCNHVFHPECIYKWLDINKRCPMCREEIDRPESLRTQPGL
MGSDKIHHHHHHMPKHLYSLLVVNINMFEKEKEILAKRIAGEIVLSPDPGKTMRKWREIFGISQTELADYLGVSSSVISDYEGGRRKSPGASTIRKFVEALIEIDEKRGGNVIKAFSRTFSSEIPTSAILDIREFDIPVTVKDIVDAVKGEIVANPDLIDRKIYGYTVVDSIQAILEMSAEEFLKLYGWTTERALVFTKVTTGRSPMIAVRVQGLKPAMVVLHGVKRLDELAVKIAEKERVPLVVSKAENETELITGLRRLVTSI
MGSDKIHHHHHHMARKISDYHLKKREETQKKFIDLLAQNNYIHISGDMVNSKTKVKVRCRHNHTWQVNYEHFKKGTRCPECRIIEGSLKKRLNISTVKSRYALKGYEILSTYKNCHSKLKAKCPEGHIWEHLPSNFFKGEECFQCKGAKKYTVECAQAAFSDRGFIPLFDTYHHNKENLPFLCKEHIDLGVQYAPLHNMVRGLANCRKCYLLLFTGENSSRWKGGISSLNKTLREAVYEVWTKPSLEKYSFKCAITNSTKDLHVHHYKKNFSEIVKEALSNLSFEL
MLQVRMLLRIPTVLRSQELIDKAFSRASRIEEPYFPDKIERIRKEVQDRISTIESISRSFLDRLVKKFPSINNLHPFYSSLIDLMFDIDQYKISLSKIDRTSQMIEQISGEHIRRLKAAKTVEDANRIMRSYYGRFASLVHEIDQDLLFLGKCRDYMKKIPDIDVNLRTYIIAGMPNVGKSSLLAALTTKKPEIAPYPFTTKSVIIGIAEHGYERIQFIDTPGILDRDFDEMNQIEKNAVLALRHIKGTVIFLFDYSDQSLYDPEMQEHLYQQIREHINPDIIRVQTKMDISREKREKIAISVNSEGGLDPLKAIIFGRADDDVRRLEHHHHHH
MSLSKSDDGDSEESFSISVQSGFEAMSQELCIVMCLKDLTSIVDIKTSSRPAMIGSLTDGSTETFWESGDEDKNKTKNITINCVKGINARYVSVHVDNSRDLGNKVTSMTFLTGKAVEELCRIKQVDLDSRHIGWVTSELPGGDNQIIKIELKGPENTLRVRQVKVLGWKDGESTKIAGQISASVAQQRSCEAETLRVFRLITSQVFGKLISGDAEPTPEQEEKALLSSPEGEEKATSDADLKEHMVGIIFSRSKLTNLQKQVCAHIVQAIRMEATRVREEWEHAISSKENANSQPSDEDASSDAYCFELLSMVLALSGSNVGRQYLAQQLTLLQDLFSLLHTASPRVQRQVTSLLRRVLPEVTPNRLASIIGVKSLPPADISDIIHSTEKGDWNKLGILDMFLGCIAKALTVQLKAKGTTITGTAGTTVGKGVTTVTLPMIFNSSYLRRGESHWWMKGSTPTQISEIIIRLIKDMAAGHLSEAWSRVTKNAIAETIIALTKMEEEFRSPVRCIATTRLWLALASLCVLDQDHVDRLSSGRWMGKDGQQKQMPMCDNHDDGETAAIILCNICGNLCTDCDRFLHLHRRTKTHQRQVFKEEEEAIKVDLHEGCGRTKLFWLMALADSKTMKAMVEFREHTGKPTTSSSEACRFCGSRSGTELSAVGSVCSDADCQEYAKIACSKTHPCGHPCGGVRNEEHCLPCLHGCDKSATTLKQDADDMCMICFTEALSAAPAIQLDCSHVFHLQCCRRVLENRWLGPRITFGFISCPICKNKINHIVLKDLLDPIKELYEDVRRKALMRLEYEGLHKSEAITTEGHHHHHH

Soluble on expression in E. coli, soluble:
MSLKNDVSPLEIKVIDENSEQYGISKETLMENAGRAVYEEIVNLNVDFSKTYLFCGTGNNGGDGFVIARHLANNFATFVVLIGNERKIKTSETQRNFNTVKNMEFFGNLDYANILDDERAVELLKTIEKELENKQNDHILIIDAMLGTGITGILKNPYSTIVDYLNVLKSKYSKKLKMVSVDIQTGNLNADLEVILHKRKFENKNKNFVVKDIGIPKYIENMVGKGDFYLLNERKQNSHKGQNGNVLVIGGSKEYHGAPVFSALAASKFADIVTVASVSNVMNTVSNYPELMPYELTGDYIVQNHVDELLELSKNYDCVVLGSGISVNSDTKEFVNSYLNETNGKVVIDADAIKLIDYSNFKFKNNFIFTPHKKEFEYIENYIESSGFKSTVVLKGSLDIIFNSNNIKMNITGNQGMTVGGTGDILCGIIGAIYACNDAFPSACCGTYINGYCGDLLEKEYGYYYNSTDIIKILPKALKELLYEGHHHHHH
MAVSDSQNSQTCLDPDASRSVLGIILGGGAGTRLYPLTKKRAKPAVPLGANYRLIDIPVSNCLNSNISKIYVLTQFNSASLNRHLSRAYASNMGGYKNEGFVEVLAAQQSPENPDWFQGTADAVRQYLWLFEEHTVLEYLILAGDHLYRMDYEKFIQAHRETDADITVAALPMDEKRATAFGLMKIDEEGRIIEFAEKPQGEQLQAMKVDTTILGLDDKRAKEMPFIASMGIYVISKDVMLNLLRDKFPGANDFGSEVIPGATSLGMRVQAYLYDGYWEDIGTIEAFYNANLGITKKPVPDFSFYDRSAPIYTQPRYLPPSKMLDADVTDSVIGEGCVIKNCKIHHSVVGLRSCISEGAIIEDSLLMGADYYETDADRKLLAAKGSVPIGIGKNCHIKRAIIDKNARIGDNVKIINKDNVQEAARETDGYFIKSGIVTVIKDALIPSGIII
MLSERMLKALNDQLNRELYSAYLYFAMAAYFEDLGLEGFANWMKAQAEEEIGHALRFYNYIYDRNGRVELDEIPKPPKEWESPLKAFEAAYEHEKFISKSIYELAALAEEEKDYSTRAFLEWFINEQVEEEASVKKILDKLKFAKDSPQILFMLDKELSARAPKLPGLLMQGGE
MSGIFGVIVSGRTPIEVVPVSDTEFTCEIVNADAINHVVVFLTGAQPFPDGIGGSGDHFQNFPPKKTQFISVYIRWPTQDGGNWHYLGFICNEKPSAIYKVAQLHKSDASHSFSQFDNQMQLYSSGSAQIGINAESLSDITGRQAADGTQASQQVKNLEKNT
MAHHHHHHMVPVKVKWGRETFELTVDLRSTVKCFKEQLQQLTSVPVERQKIMGVKASQCNDNEVTLEAAGVAAGKTLMLIGTAAEVVRATPIVATGNKDSAVQAPASHPAEKQAVGLQNIANTCYMNAAVQMLRLVPEVRDVLNFNANDPIVSELLKLYNTMDTKRDPVVPASLWSILLAHFPTFAEVNEKGHPMQHDSQEALNALLQRINSCLPESHKRLFTGNLSQKMVCKDDPDDQPVLHDVPFLMLSCNIDAEIETLEAGLEAAFNETVKLHSEKLAREALHTRTSRIAAMPEYLFIHMVRFSWRSDIQSKAKILKPVTFPMTLDLHALCAEEYKPELEVERKRVLKRRDIEMERRRAAKNKTKLDDDEAAPAEDASNTAEPINTTVGNHSGYYELCGVISHKGRSADSGHYVFWGKYADQWMVLDDSNTAAVSEEDVKRLRGSGEAHIAYVLMYRSRDPRTKQSVIPL
MHVWPVQDAKARFSEFLDACITEGPQIVSRRGAEEAVLVPIGEWRRLQAAARPSLKQLLLSDSARTEMLVPERGKARRRQVEPLR
